Experimental data from US20160200813A1.

Assays:
[1] = target: CR1 cyclic peptide of human LRP-8 (human); experiment: ELISA using CR1 peptide
[2] = target: Cynomolgus monkey LRP-8 expressed on HEK293 cells (cynomolgus monkey); experiment: FACS, cyno LRP8 cells
[3] = target: Mouse LRP-8 expressed on HEK293 cells (mouse) (UniProt Q924X6); experiment: FACS, mouse LRP8 cells

Q: Which OD450 [1] does the source give for “Negative IgG control (Table 20) (antibody)” here?
A: 0.08 OD450

Q: What about the FACS (ratio +/-) [2] of the same substance?
A: 0.8

Q: And the FACS (ratio +/-) [3]?
A: 1
